{"source": "patent US20240408167A1", "about": "“COMPOSITION FOR TREATING OCULAR DISEASES CONTAINING PEPTIDE” (Encuragen Inc., priority 2023, published 2024)", "key": {"[1]": {"test_system": "mouse experimental dry eye (EDE) model", "experiment": "Tear volume, phenol red thread test, EDE mouse model", "format": "in vivo", "protocol": "(§1) To confirm the pharmacological effect and appropriate dosage, a pilot study was first conducted with the mice. In addition, a rabbit DED (Dry Eye Disease) model with a large exposed facial area was evaluated in comparison with a mouse model. In the mouse experimental dry eye (EDE) model, scopolamine hydrobromide (Sigma-Aldrich. St. Louis, MO, USA) was subcutaneously injected three times a day (9 a.m., 1:30 p.m., 6 p.m.) in a room exposed to ventilation with an ambient humidity of less than 40% at 25±2° C. to induce DED.\n(§2) The mice were randomly divided into five groups: (1) EDE (experimental dry eye) control mice without eye drops administration, (2) EDE mice treated with a vehicle (phosphate-buffered saline), (3) EDE mice treated with 0.001% (PEG)-BHD1028 (4) EDE mice treated with 0.01% (PEG)-BHD1028, and (5) EDE mice treated with 0.1% (PEG)-BHD1028. All the treatment groups received 2 μL of eye drops three times a day.\nThe tear secretion was measured for 20 seconds by contacting a cotton thread containing phenol red (Zone-Quick™; Oasis Medical, Inc., Glendora, CA, USA) to the conjunctival sac on the lateral canthus of the mouse eye. After measuring the length using a Nikon SMZ1500 microscope, the length substituted to the prescribed formula, and the value was converted to volume. The tear production of the rabbits was measured by a modified Schirmer tear test using Whatman 41 filter paper strips (Tianjin Jingming New Technology Development Co., Ltd., Tianjin, China) on Day 0, Day 5, and Day 10. Eye examination of the rabbits was performed under anesthesia. The anesthesia was performed under sedation by performing intramuscular injection of xylazine (3 mg/kg, Rompun®; Bayer Korea, Korea) and intramuscular injection of 10 mg/kgtiletamine/zolazepam (Zoletil®, Virbac Laboratories, Carros, France). After adding 1 drop of proparacaine HCl 0.5% (Alcaine®, Alcon Korea Ltd., Seoul, Korea), excess tears and eye drops were removed with Weck-cel® […]. The wet length (mm) of the paper strip was read after 5 minutes.\nThe tear volume of the mice was measured using the Phenol Red Thread (PRT) test on Day 5 and Day 10 after the treatment."}, "[2]": {"test_system": "mouse experimental dry eye (EDE) model", "experiment": "Corneal fluorescein staining (CFS) score, EDE mouse model", "format": "in vivo", "protocol": "as §1, §2\nThe subjects were evaluated by corneal staining, and the abnormal findings of the eyelids, cornea, and conjunctiva were recorded. After dropping 1 μL of the 1% fluorescent dye solution and washing with saline solution, and the cornea was observed under a slit-lamp microscope and scored to evaluate the degree of epithelial damage (degree of fluorescent staining).\nThe clinical severity of the cornea was evaluated using a corneal fluorescein staining (CFS) method, which is widely used to detect foreign substances and corneal surface damage. A higher CFS score indicates more severe corneal epitheliopathy."}, "[3]": {"experiment": "Osmotic pressure of trehalose-mannitol composite formulations", "format": "physicochemical", "conditions": "trehalose-mannitol composite formulation", "protocol": "The osmotic pressure of the trehalose-only formulations according to the (PEG)-BHD1028 content (see Table 5) and the osmotic pressure of the trehalose-mannitol composite formulations according to the (PEG)-BHD1028 content (see Table 6) were measured, and reflecting the experimental results, the osmolarity including the 0.5% (PEG)-BHD1028 concentration was adjusted to about 300 mOsm/kg."}, "[4]": {"experiment": "Stability according to pH, HPLC residual amount at 40±2° C.", "format": "physicochemical", "conditions": "for Residual amount: 40±2° C.", "protocol": "To evaluate the stability of eye drops according to pH, a 10 mM pH buffer [10 mM sodium phosphate buffer+0.02% sodium azide (pH 5.5, pH 6.0, pH 6.5, pH 7.0) or a 10 mM PBS+WELGENE fresh media 10×PBS (pH 7.4)] was mixed with (PEG)-BHD1028 and the resulting mixture was incubated at 40±2° C., and then the stability was evaluated through an HPLC analysis. As a result of the evaluation, there was no significant difference in the residual amount between the formulation prepared at pH 6.5, which was set as the target pH of the eye drops, and the formulation prepared at 7.0, which was the average pH of the eyes, as shown in Table 4 below."}, "[5]": {"test_system": "mouse experimental dry eye (EDE) model", "experiment": "Tear film break-up time (TBUT), EDE mouse model", "format": "in vivo", "protocol": "as §1, §2\nTBUT is the time elapsed between the last blink and the first appearance of fluorescein decomposition, and it is an indicator of tear film stability. TBUT was evaluated by administering 1 μL of 1% fluorescein sodium dye to the lower conjunctival sac of the mice and visualizing the tear film using cobalt blue light of a slit-lamp biomicroscope. The measurement was repeated three times to obtain an average value.\nTear film instability is an important pathological characteristic of DED and the most common indicator of tear quality. […] The improvement in the 0.01% (PEG)-BHD1028 group was greater than that in the 0.001% (PEG)-BHD1028 group on Day 10 (p<0.05), but there was no difference between 0.01% and 0.1%."}}, "note": "“And” between values parts separate entries of the source, which are not always exact repeats. Identical values can stand only once.", "data": [{"substance": "NH2-Tyr-Tyr-Phe-Ala-Tyr-His-Pro-Asn-Ile-Pro-Gly-Leu-Tyr-Tyr-Phe-COOH (H-YYFAYHPNIPGLYYF-OH; also: PEGylated, site not given here (mPEG), acetate salt) [(PEG)-BHD1028]", "values": [{"measurement": "Tear volume", "setting": "[1]; 0.001% eye drops three times a day, Day 5", "result": "0.024 ± 0.003", "unit": "µL"}, {"measurement": "Tear volume", "setting": "[1]; 0.001% eye drops three times a day, Day 10", "result": "0.021 ± 0.002", "unit": "µL"}, {"measurement": "Tear volume", "setting": "[1]; 0.01% eye drops three times a day, Day 5", "result": "0.026 ± 0.003", "unit": "µL"}, {"measurement": "Tear volume", "setting": "[1]; 0.01% eye drops three times a day, Day 10", "result": "0.027 ± 0.003", "unit": "µL"}, {"measurement": "Tear volume", "setting": "[1]; 0.1% eye drops three times a day, Day 5", "result": "0.028 ± 0.002", "unit": "µL"}, {"measurement": "Tear volume", "setting": "[1]; 0.1% eye drops three times a day, Day 10", "result": "0.032 ± 0.004", "unit": "µL"}, {"measurement": "CFS", "setting": "[2]; 0.001%, Day 5", "result": "9.875 ± 1.808", "unit": "score"}, {"measurement": "CFS", "setting": "[2]; 0.001%, Day 10", "result": "11.000 ± 1.927", "unit": "score"}, {"measurement": "CFS", "setting": "[2]; 0.01%, Day 5", "result": "8.625 ± 1.598", "unit": "score"}, {"measurement": "CFS", "setting": "[2]; 0.01%, Day 10", "result": "7.625 ± 1.598", "unit": "score"}, {"measurement": "CFS", "setting": "[2]; 0.1%, Day 5", "result": "8.125 ± 1.553", "unit": "score"}, {"measurement": "CFS", "setting": "[2]; 0.1%, Day 10", "result": "8.375 ± 1.302", "unit": "score"}, {"measurement": "osmotic pressure, Mean", "setting": "[3]; 0.5%", "result": 301.00, "unit": "mOsm/kg"}, {"measurement": "osmotic pressure, single measurements #1-#3", "setting": "[3]; 0.5%", "result": "301 mOsm/kg and 399 mOsm/kg and 303 mOsm/kg"}, {"measurement": "osmotic pressure, Mean", "setting": "[3]; 1.5%", "result": 309.33, "unit": "mOsm/kg"}, {"measurement": "osmotic pressure, single measurements #1-#3", "setting": "[3]; 1.5%", "result": "309 mOsm/kg and 312 mOsm/kg and 307 mOsm/kg"}, {"measurement": "osmotic pressure, Mean", "setting": "[3]; 4.5%", "result": 338.33, "unit": "mOsm/kg"}, {"measurement": "osmotic pressure, single measurements #1-#3", "setting": "[3]; 4.5%", "result": "338 mOsm/kg and 339 mOsm/kg"}, {"measurement": "Residual amount", "setting": "[4]; PBS (pH 7.4), Day 0", "result": 100.0, "unit": "%"}, {"measurement": "Residual amount", "setting": "[4]; PBS (pH 7.4), Day 1", "result": 97.1, "unit": "%"}, {"measurement": "Residual amount", "setting": "[4]; PBS (pH 7.4), Day 3", "result": 92.3, "unit": "%"}, {"measurement": "Residual amount", "setting": "[4]; PBS (pH 7.4), Day 7", "result": 89.9, "unit": "%"}, {"measurement": "Residual amount", "setting": "[4]; pH 5.5, Day 0", "result": 100.0, "unit": "%"}, {"measurement": "Residual amount", "setting": "[4]; pH 5.5, Day 1", "result": 98.4, "unit": "%"}, {"measurement": "Residual amount", "setting": "[4]; pH 5.5, Day 3", "result": 97.2, "unit": "%"}, {"measurement": "Residual amount", "setting": "[4]; pH 5.5, Day 7", "result": 96.6, "unit": "%"}, {"measurement": "Residual amount", "setting": "[4]; pH 6.0, Day 0", "result": 100.0, "unit": "%"}, {"measurement": "Residual amount", "setting": "[4]; pH 6.0, Day 1", "result": 99.8, "unit": "%"}, {"measurement": "Residual amount", "setting": "[4]; pH 6.0, Day 3", "result": 99.0, "unit": "%"}, {"measurement": "Residual amount", "setting": "[4]; pH 6.0, Day 7", "result": 98.1, "unit": "%"}, {"measurement": "Residual amount", "setting": "[4]; pH 6.5, Day 0", "result": 100.0, "unit": "%"}, {"measurement": "Residual amount", "setting": "[4]; pH 6.5, Day 1", "result": 99.7, "unit": "%"}, {"measurement": "Residual amount", "setting": "[4]; pH 6.5, Day 3", "result": 98.7, "unit": "%"}, {"measurement": "Residual amount", "setting": "[4]; pH 6.5, Day 7", "result": 97.3, "unit": "%"}, {"measurement": "Residual amount", "setting": "[4]; pH 7.0, Day 0", "result": 100.0, "unit": "%"}, {"measurement": "Residual amount", "setting": "[4]; pH 7.0, Day 1", "result": 99.2, "unit": "%"}, {"measurement": "Residual amount", "setting": "[4]; pH 7.0, Day 3", "result": 98.7, "unit": "%"}, {"measurement": "Residual amount", "setting": "[4]; pH 7.0, Day 7", "result": 94.9, "unit": "%"}, {"measurement": "most stable pH within the pH range of normal tears", "setting": "[4]; pH range 6.5 to 7.6", "result": 6.5}, {"measurement": "TBUT", "setting": "[5]; 0.001%, Day 5", "result": "1.333 ± 0.081", "unit": "s"}, {"measurement": "TBUT", "setting": "[5]; 0.001%, Day 10", "result": "1.359 ± 0.140", "unit": "s"}, {"measurement": "TBUT", "setting": "[5]; 0.01%, Day 5", "result": "1.406 ± 0.082", "unit": "s"}, {"measurement": "TBUT", "setting": "[5]; 0.01%, Day 10", "result": "1.530 ± 0.137", "unit": "s"}, {"measurement": "TBUT", "setting": "[5]; 0.1%, Day 5", "result": "1.408 ± 0.095", "unit": "s"}, {"measurement": "TBUT", "setting": "[5]; 0.1%, Day 10", "result": "1.483 ± 0.113", "unit": "s"}]}]}
